Assay results published in US9327008B2, “Cell-permeant peptide-based inhibitor of kinases” (Purdue Research Foundation, priority 2008, dated 2016).

Experiments:
Type in all cases: biochemical
[1] = target: T1, PDGFRβ (Homo sapiens, UniProt P09619); assay: Millipore radiometric kinase activity assay, PDGFRβ (h)
T1 construct: purchased Millipore (radiometric assay service)
Description: (§1) A commercial radiometric assay service (Millipore, Billerica, Mass.) was used to test the specificity and potency of peptides containing a coupled transduction domain and therapeutic domain, hereinafter “complete peptides”). In these assays, if the kinase is not inhibited by an inhibitor peptide, a positively charged substrate is phosphorylated with a radiolabeled phosphate group from an ATP.
(§2) In a final reaction volume of 25 μL, PDGFRβ (h) (5-10 mU) is incubated with 8 mM MOPS pH 7.0, 0.2 mM EDTA, 0.1 mg/mL poly(Glu, Tyr) 4:1, 10 mM MnCl2, 10 mM MgAcetate and [γ-^33P-ATP] (specific activity approx. 500 cpm/pmol, concentration as required). The reaction is initiated by the addition of the MgATP mix. After incubation for 40 minutes at room temperature, the reaction is stopped by the addition of 5 μL of a 3% phosphoric acid solution. 10 μL of the reaction is then spotted onto a Filtermat A and washed three times for 5 minutes in 75 mM phosphoric acid and once in methanol prior to drying and scintillation counting.
(§3) IC50 values for inhibitor peptides were determined using Millipore's IC50Profiler Express service. The IC50 value was estimated from a 10-point curve of one-half log dilutions. For peptides tested for specificity, the concentration of the peptides that inhibited approximately 95% of MK2 activity was chosen to profile against a battery of kinases related to MK2, cell viability, or human disease from MilliporeKinaseProfiler service. In both assays, compounds were supplied in dimethylsulfoxide (DMSO). Every kinase activity measurement was conducted in duplicate.
(§4) Therapeutic inhibitor peptides were assayed for activity against human kinases related to MK2, cell viability, or human disease. The assays were performed using concentrations of therapeutic inhibitor peptides that yielded 2% to 8% of normal MK2 activity. Error is reported as the standard deviation between 2 samples, and “c” is rat AMPK whereas all other kinases used are human kinases.

[2] = target: T2, PKG1α (Homo sapiens, UniProt Q13976); assay: Millipore radiometric kinase activity assay, PKG1α (h); settings: peptide 100 μM
T2 construct: purchased Millipore (radiometric assay service)
T2 sequence (Q13976 1-671): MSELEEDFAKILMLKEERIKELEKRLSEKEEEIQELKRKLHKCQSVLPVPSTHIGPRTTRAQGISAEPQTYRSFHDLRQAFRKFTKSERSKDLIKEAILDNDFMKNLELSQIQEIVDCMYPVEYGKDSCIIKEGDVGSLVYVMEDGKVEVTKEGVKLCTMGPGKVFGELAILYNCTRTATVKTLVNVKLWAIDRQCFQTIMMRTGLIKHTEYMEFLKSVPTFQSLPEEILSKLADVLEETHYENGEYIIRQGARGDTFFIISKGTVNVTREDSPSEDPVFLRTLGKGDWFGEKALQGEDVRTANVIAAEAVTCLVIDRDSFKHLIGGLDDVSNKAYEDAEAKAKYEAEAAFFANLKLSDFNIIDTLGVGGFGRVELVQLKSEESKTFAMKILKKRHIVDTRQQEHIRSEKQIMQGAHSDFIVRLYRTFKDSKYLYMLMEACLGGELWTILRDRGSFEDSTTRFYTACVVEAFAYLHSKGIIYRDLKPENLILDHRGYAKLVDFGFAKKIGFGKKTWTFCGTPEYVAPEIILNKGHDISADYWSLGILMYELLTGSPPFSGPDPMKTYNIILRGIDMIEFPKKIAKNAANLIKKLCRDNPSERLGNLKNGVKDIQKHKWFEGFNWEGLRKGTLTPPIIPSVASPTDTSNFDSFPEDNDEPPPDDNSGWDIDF
Description: as §1
as §2, with “PKG1α” for “PDGFRβ”, “EDTA,” for “EDTA, 0.1 mg/mL poly(Glu, Tyr) 4:1,”, “μM cGMP, 200 μM […] [SEQ ID NO: 62],” for “mM MnCl2,”, “P30 filtermat” for “Filtermat A”
IC50 values for inhibitor peptides were determined using Millipore's IC50Profiler Express service. The IC50 value was estimated from a 10-point curve of one-half log dilutions. […]

[3] = target: T3, PKG1β (Homo sapiens, UniProt Q13976); assay: Millipore radiometric kinase activity assay, PKG1β (h)
T3 construct: purchased Millipore (radiometric assay service)
T3 sequence (Q13976 1-686 isoform Q13976-2): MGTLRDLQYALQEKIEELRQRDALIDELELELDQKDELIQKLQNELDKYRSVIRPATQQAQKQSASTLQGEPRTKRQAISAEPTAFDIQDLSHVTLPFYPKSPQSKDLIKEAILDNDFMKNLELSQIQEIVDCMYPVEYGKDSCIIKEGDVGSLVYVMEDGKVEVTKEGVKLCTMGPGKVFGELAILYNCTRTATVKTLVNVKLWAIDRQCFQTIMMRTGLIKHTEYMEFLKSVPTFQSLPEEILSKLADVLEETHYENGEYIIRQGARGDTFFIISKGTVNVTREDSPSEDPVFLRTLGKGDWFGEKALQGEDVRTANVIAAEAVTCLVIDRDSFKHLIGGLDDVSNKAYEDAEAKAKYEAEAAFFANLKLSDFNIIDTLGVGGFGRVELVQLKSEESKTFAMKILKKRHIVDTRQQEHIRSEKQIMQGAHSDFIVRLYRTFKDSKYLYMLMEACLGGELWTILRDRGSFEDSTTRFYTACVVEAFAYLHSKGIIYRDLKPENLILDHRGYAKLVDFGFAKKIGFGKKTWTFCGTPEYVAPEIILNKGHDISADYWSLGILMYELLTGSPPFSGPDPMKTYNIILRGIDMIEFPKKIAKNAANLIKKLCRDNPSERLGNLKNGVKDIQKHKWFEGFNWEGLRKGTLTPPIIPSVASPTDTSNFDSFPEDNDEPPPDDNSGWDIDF
Description: as §1
as §2, with “PKG1β” for “PDGFRβ”, “EDTA,” for “EDTA, 0.1 mg/mL poly(Glu, Tyr) 4:1,”, “μM cGMP, 200 μM […] [SEQ ID NO: 62],” for “mM MnCl2,”, “P30 filtermat” for “Filtermat A”
as §3, §4

T1 sequence (P09619 33-1106): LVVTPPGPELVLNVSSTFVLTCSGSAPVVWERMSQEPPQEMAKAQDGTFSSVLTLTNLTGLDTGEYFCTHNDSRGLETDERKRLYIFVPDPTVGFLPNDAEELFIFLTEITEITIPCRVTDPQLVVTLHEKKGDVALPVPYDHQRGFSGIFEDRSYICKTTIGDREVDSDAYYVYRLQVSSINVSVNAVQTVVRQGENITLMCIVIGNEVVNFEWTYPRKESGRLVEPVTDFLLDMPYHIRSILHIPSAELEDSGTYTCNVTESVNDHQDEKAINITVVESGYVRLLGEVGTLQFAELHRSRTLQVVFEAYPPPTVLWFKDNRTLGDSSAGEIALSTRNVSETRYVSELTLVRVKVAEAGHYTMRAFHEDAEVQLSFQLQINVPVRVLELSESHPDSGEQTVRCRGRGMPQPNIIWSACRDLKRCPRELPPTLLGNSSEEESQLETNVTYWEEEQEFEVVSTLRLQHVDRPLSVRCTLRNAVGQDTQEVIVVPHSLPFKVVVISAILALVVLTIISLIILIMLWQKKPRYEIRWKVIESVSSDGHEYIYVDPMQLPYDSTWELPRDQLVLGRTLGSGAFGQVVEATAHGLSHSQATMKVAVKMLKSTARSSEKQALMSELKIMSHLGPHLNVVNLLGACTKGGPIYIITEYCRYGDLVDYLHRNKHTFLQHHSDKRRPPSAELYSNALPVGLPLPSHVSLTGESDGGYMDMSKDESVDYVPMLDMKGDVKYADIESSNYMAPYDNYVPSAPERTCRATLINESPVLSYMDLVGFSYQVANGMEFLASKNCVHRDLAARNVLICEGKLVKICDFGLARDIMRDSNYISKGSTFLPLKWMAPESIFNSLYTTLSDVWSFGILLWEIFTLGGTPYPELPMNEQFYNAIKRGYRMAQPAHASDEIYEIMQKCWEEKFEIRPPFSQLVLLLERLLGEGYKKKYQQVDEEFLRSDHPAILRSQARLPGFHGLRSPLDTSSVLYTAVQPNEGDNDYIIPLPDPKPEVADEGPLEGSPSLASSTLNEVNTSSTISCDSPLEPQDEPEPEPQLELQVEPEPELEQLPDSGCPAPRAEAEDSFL

Sequence	PDGFRβ Kinase Activity (%) (+SD %) ([1]; peptide 30 μM)	PDGFRβ Kinase Activity (%) (+SD %) ([1]; peptide 100 μM)	PKG1α Kinase Activity (%) (+SD %) [2]	PKG1β Kinase Activity (%) (+SD %) ([3]; peptide 30 μM)	PKG1β Kinase Activity (%) (+SD %) ([3]; peptide 100 μM)
WLRRIKAWLRRIKALNRQLGVAA	42 (4) %	92 (4) %	12 (2) %	15 (4) %	15 (1) %
KAFAKLAARLYRKALARQLGVAA		66 (8) %	25 (2) %		24 (5) %
